Data published in IntAct's records for PubMed 26068854.

B1: Kinetochore protein Nuf2 (Homo sapiens), Q9BZD4 (parent)
chain: METLSFPRYNVAEIVIHIRNKILTGADGKNLTKNDLYPNPKPEVLHMIYMRALQIVYGIRLEHFYMMPVNSEVMYPHLMEGFLPFSNLVTHLDSFLPICRVNDFETADILCPKAKRTSRFLSGIINFIHFREACRETYMEFLWQYKSSADKMQQLNAAHQEALMKLERLDSVPVEEQEEFKQLSDGIQELQQSLNQDFHQKTIVLQEGNSQKKSNISEKTKRLNELKLSVVSLKEIQESLKTKIVDSPEKLKNYKEKMKDTVQKLKNARQEVVEKYEIYGDSVDCLPSCQLEVQLYQKKIQDLSDNREKLASILKESLNLEDQIESDESELKKLKTEENSFKRLMIVKKEKLATAQFKINKKHEDVKQYKRTVIEDCNKVQEKRGAVYERVTTINQEIQKIKLGIQQLKDAAEREKLKSQEIFLNLKTALEKYHDGIEKAAEDSYAKIDEKTAELKRKMFKMST
partner: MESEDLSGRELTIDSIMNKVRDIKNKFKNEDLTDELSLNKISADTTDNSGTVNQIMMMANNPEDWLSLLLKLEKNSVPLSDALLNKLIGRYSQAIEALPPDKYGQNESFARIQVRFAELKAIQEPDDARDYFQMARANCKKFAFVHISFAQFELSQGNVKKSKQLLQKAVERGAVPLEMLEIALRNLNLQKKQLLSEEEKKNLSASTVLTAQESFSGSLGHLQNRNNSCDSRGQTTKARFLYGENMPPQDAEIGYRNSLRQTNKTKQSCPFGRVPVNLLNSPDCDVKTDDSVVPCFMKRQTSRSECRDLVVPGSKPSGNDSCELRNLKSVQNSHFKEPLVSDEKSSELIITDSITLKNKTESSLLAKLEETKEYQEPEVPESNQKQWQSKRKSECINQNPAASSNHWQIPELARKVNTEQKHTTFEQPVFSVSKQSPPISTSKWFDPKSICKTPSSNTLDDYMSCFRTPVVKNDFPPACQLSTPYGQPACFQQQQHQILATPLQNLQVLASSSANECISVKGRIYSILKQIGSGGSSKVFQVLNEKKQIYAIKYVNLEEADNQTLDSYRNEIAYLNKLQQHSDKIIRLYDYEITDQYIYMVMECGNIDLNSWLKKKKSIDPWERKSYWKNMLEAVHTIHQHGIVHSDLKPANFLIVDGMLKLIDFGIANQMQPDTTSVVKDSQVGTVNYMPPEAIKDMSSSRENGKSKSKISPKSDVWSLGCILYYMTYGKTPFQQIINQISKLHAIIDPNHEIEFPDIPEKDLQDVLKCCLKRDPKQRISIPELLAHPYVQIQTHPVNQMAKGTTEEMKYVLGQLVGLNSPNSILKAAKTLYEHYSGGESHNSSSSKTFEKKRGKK
B2: Kinetochore protein NDC80 homolog (Homo sapiens), O14777 (parent)
chain: MKRSSVSSGGAGRLSMQELRSQDVNKQGLYTPQTKEKPTFGKLSINKPTSERKVSLFGKRTSGHGSRNSQLGIFSSSEKIKDPRPLNDKAFIQQCIRQLCEFLTENGYAHNVSMKSLQAPSVKDFLKIFTFLYGFLCPSYELPDTKFEEEVPRIFKDLGYPFALSKSSMYTVGAPHTWPHIVAALVWLIDCIKIHTAMKESSPLFDDGQPWGEETEDGIMHNKLFLDYTIKCYESFMSGADSFDEMNAELQSKLKDLFNVDAFKLESLEAKNRALNEQIARLEQEREKEPNRLESLRKLKASLQGDVQKYQAYMSNLESHSAILDQKLNGLNEEIARVELECETIKQENTRLQNIIDNQKYSVADIERINHERNELQQTINKLTKDLEAEQQKLWNEELKYARGKEAIETQLAEYHKLARKLKLIPKGAENSKGYDFEIKFNPEAGANCLVKYRAQVYVPLKELLNETEEEINKALNKKMGLEDTLEQLNAMITESKRSVRTLKEEVQKLDDLYQQKIKEAEEEDEKCASELESLEKHKHLLESTVNQGLSEAMNELDAVQREYQLVVQTTTEERRKVGNNLQRLLEMVATHVGSVEKHLEEQIAKVDREYEECMSEDLSENIKEIRDKYEKKATLIKSSEE
partner: B1 partner

Variants of: B1
Settings: with TTK

Variant	effect of a mutation on the interaction
METLSFPRYNVAEIVIHIRNKILTGADGKNLTKNDLYPNPKPEVLHMIYMRALQIVYGIRLEHFYMMPVNSEVMYPHLMEGFLPFSNLVTHLDSFLPICRVNDFETADILCPKAKETSRFLSGIINFIHFREACRETYMEFLWQYKSSADKMQQLNAAHQEALMKLERLDSVPVEEQEEFKQLSDGIQELQQSLNQDFHQKTIVLQEGNSQKKSNISEKTKRLNELKLSVVSLKEIQESLKTKIVDSPEKLKNYKEKMKDTVQKLKNARQEVVEKYEIYGDSVDCLPSCQLEVQLYQKKIQDLSDNREKLASILKESLNLEDQIESDESELKKLKTEENSFKRLMIVKKEKLATAQFKINKKHEDVKQYKRTVIEDCNKVQEKRGAVYERVTTINQEIQKIKLGIQQLKDAAEREKLKSQEIFLNLKTALEKYHDGIEKAAEDSYAKIDEKTAELKRKMFKMST [R116E]	decreasing interaction strength
METLSFPRYNVAEIVIHIRNKILTGADGKNLTKNDLYPNPKPEVLHMIYMRALQIVYGIRLEHFYMMPVNSEVMYPHLMEGFLPFSNLVTHLDSFLPICRVNDFETADILCPKAKRTSRFLSGIINFIAFREACRETYMEFLWQYKSSADKMQQLNAAHQEALMKLERLDSVPVEEQEEFKQLSDGIQELQQSLNQDFHQKTIVLQEGNSQKKSNISEKTKRLNELKLSVVSLKEIQESLKTKIVDSPEKLKNYKEKMKDTVQKLKNARQEVVEKYEIYGDSVDCLPSCQLEVQLYQKKIQDLSDNREKLASILKESLNLEDQIESDESELKKLKTEENSFKRLMIVKKEKLATAQFKINKKHEDVKQYKRTVIEDCNKVQEKRGAVYERVTTINQEIQKIKLGIQQLKDAAEREKLKSQEIFLNLKTALEKYHDGIEKAAEDSYAKIDEKTAELKRKMFKMST [H129A]	decreasing interaction strength
METLSFPRYNVAEIVIHIRNKILTGADGKNLTKNDLYPNPKPEVLHMIYMRALQIVYGIRLEHFYMMPVNSEVMYPHLMEGFLPFSNLVTHLDSFLPICRVNDFETADILCPKAKRTSRFLSGIIAFIHFREACRETYMEFLWQYKSSADKMQQLNAAHQEALMKLERLDSVPVEEQEEFKQLSDGIQELQQSLNQDFHQKTIVLQEGNSQKKSNISEKTKRLNELKLSVVSLKEIQESLKTKIVDSPEKLKNYKEKMKDTVQKLKNARQEVVEKYEIYGDSVDCLPSCQLEVQLYQKKIQDLSDNREKLASILKESLNLEDQIESDESELKKLKTEENSFKRLMIVKKEKLATAQFKINKKHEDVKQYKRTVIEDCNKVQEKRGAVYERVTTINQEIQKIKLGIQQLKDAAEREKLKSQEIFLNLKTALEKYHDGIEKAAEDSYAKIDEKTAELKRKMFKMST [N126A]	disrupting interaction strength
METLSFPRYNVAEIVIHIRNKILTGADGKNLTKNDLYPNPKPEVLHMIYMRALQIVYGIRLEHFYMMPVNSEVMYPHLMEGFLPFSNLVTHLDSFLPICRVNDFETADILCPKAERTSRFLSGIINFIHFREACRETYMEFLWQYKSSADKMQQLNAAHQEALMKLERLDSVPVEEQEEFKQLSDGIQELQQSLNQDFHQKTIVLQEGNSQKKSNISEKTKRLNELKLSVVSLKEIQESLKTKIVDSPEKLKNYKEKMKDTVQKLKNARQEVVEKYEIYGDSVDCLPSCQLEVQLYQKKIQDLSDNREKLASILKESLNLEDQIESDESELKKLKTEENSFKRLMIVKKEKLATAQFKINKKHEDVKQYKRTVIEDCNKVQEKRGAVYERVTTINQEIQKIKLGIQQLKDAAEREKLKSQEIFLNLKTALEKYHDGIEKAAEDSYAKIDEKTAELKRKMFKMST [K115E]	decreasing interaction strength
METLSAARYNVAEIVIHIRNKILTGADGKNLTKNDLYPNPKPEVLHMIYMRALQIVYGIRLEHFYMMPVNSEVMYPHLMEGFLPFSNLVTHLDSFLPICRVNDFETADILCPKAKRTSRFLSGIINFIHFREACRETYMEFLWQYKSSADKMQQLNAAHQEALMKLERLDSVPVEEQEEFKQLSDGIQELQQSLNQDFHQKTIVLQEGNSQKKSNISEKTKRLNELKLSVVSLKEIQESLKTKIVDSPEKLKNYKEKMKDTVQKLKNARQEVVEKYEIYGDSVDCLPSCQLEVQLYQKKIQDLSDNREKLASILKESLNLEDQIESDESELKKLKTEENSFKRLMIVKKEKLATAQFKINKKHEDVKQYKRTVIEDCNKVQEKRGAVYERVTTINQEIQKIKLGIQQLKDAAEREKLKSQEIFLNLKTALEKYHDGIEKAAEDSYAKIDEKTAELKRKMFKMST [F6A;P7A]	disrupting interaction strength
METLSFPRYNVAEIVIHIRNKILTGADGKNLTKNDLYPNPKPEVLHMIYMRALQIVYGIRLEHFYMMPVNSEVMYPHLMEGFLPFSNLVTHLDSFLPICRVNKFETADILCPKAKRTSRFLSGIINFIHFREACRETYMEFLWQYKSSADKMQQLNAAHQEALMKLERLDSVPVEEQEEFKQLSDGIQELQQSLNQDFHQKTIVLQEGNSQKKSNISEKTKRLNELKLSVVSLKEIQESLKTKIVDSPEKLKNYKEKMKDTVQKLKNARQEVVEKYEIYGDSVDCLPSCQLEVQLYQKKIQDLSDNREKLASILKESLNLEDQIESDESELKKLKTEENSFKRLMIVKKEKLATAQFKINKKHEDVKQYKRTVIEDCNKVQEKRGAVYERVTTINQEIQKIKLGIQQLKDAAEREKLKSQEIFLNLKTALEKYHDGIEKAAEDSYAKIDEKTAELKRKMFKMST [D103K]	decreasing interaction strength

Variants of: B2
Settings: with TTK

Variant	effect of a mutation on the interaction
K89E;K166E	decreasing interaction strength
K166E	decreasing interaction strength
K89E	decreasing interaction strength
